Measurements from patent publication US20110059888A1.
*1 amine or outer side, *2 acyl side, *3 side chain or, on linkers, in order; H or OH if unused. [ ]: non-standard residue; d: D form. Ser(Me) = O-methylserine, COC[C@H](N[*:1])C(=O)[*:2]; Arg(Me) = CNC(=N)NCCC[C@H](N)C(=O)O; Ala(cPr) = N[C@@H](CC1CC1)C(=O)O; Hyp = O=C(O)[C@@H]1C[C@@H](O)CN1; 2Pal = N[C@@H](Cc1ccccn1)C(=O)O; 3Pal = N[C@@H](Cc1cccnc1)C(=O)O; 4Pal = N[C@@H](Cc1ccncc1)C(=O)O; Cha = N[C@@H](CC1CCCCC1)C(=O)O

B1: des(1)-Ac-[D-Tyr2,Glu3,Thr5,Arg(Me)9,Trp10]MS10 (peptide)
peptide: Ac-[dY]ENTFGL[Arg(Me)]W-NH2
SMILES: CNC(=N)NCCC[C@H](NC(=O)[C@H](CC(C)C)NC(=O)CNC(=O)[C@H](Cc1ccccc1)NC(=O)[C@@H](NC(=O)[C@H](CC(N)=O)NC(=O)[C@H](CCC(=O)O)NC(=O)[C@@H](Cc1ccc(O)cc1)NC(C)=O)[C@@H](C)O)C(=O)N[C@@H](Cc1c[nH]c2ccccc12)C(N)=O
B2: des(1)-Ac-[D-Tyr2,Glu3,Thr5,Cha6,Arg(Me)9,Trp10]MS10 (peptide)
peptide: Ac-[dY]ENT[Cha]GL[Arg(Me)]W-NH2
SMILES: CNC(=N)NCCC[C@H](NC(=O)[C@H](CC(C)C)NC(=O)CNC(=O)[C@H](CC1CCCCC1)NC(=O)[C@@H](NC(=O)[C@H](CC(N)=O)NC(=O)[C@H](CCC(=O)O)NC(=O)[C@@H](Cc1ccc(O)cc1)NC(C)=O)[C@@H](C)O)C(=O)N[C@@H](Cc1c[nH]c2ccccc12)C(N)=O
B3: des(1)-Ac-[D-Tyr2,Hyp3,Thr5,Pya(3)6,Arg(Me)9,Trp10]MS10 (peptide)
peptide: Ac-[dY][Hyp]NT[3Pal]GL[Arg(Me)]W-NH2
SMILES: CNC(=N)NCCC[C@H](NC(=O)[C@H](CC(C)C)NC(=O)CNC(=O)[C@H](Cc1cccnc1)NC(=O)[C@@H](NC(=O)[C@H](CC(N)=O)NC(=O)[C@@H]1C[C@@H](O)CN1C(=O)[C@@H](Cc1ccc(O)cc1)NC(C)=O)[C@@H](C)O)C(=O)N[C@@H](Cc1c[nH]c2ccccc12)C(N)=O
B4: des(1)-Ac-[D-Tyr2,Hyp3,Thr5,Ser(Me)7,Arg(Me)9,Trp10]MS10 (peptide)
peptide: Ac-[dY][Hyp]NTF[Ser(Me)]L[Arg(Me)]W-NH2
SMILES: CNC(=N)NCCC[C@H](NC(=O)[C@H](CC(C)C)NC(=O)[C@H](COC)NC(=O)[C@H](Cc1ccccc1)NC(=O)[C@@H](NC(=O)[C@H](CC(N)=O)NC(=O)[C@@H]1C[C@@H](O)CN1C(=O)[C@@H](Cc1ccc(O)cc1)NC(C)=O)[C@@H](C)O)C(=O)N[C@@H](Cc1c[nH]c2ccccc12)C(N)=O
B5: des(1)-Ac-[D-Tyr2,Hyp3,Thr5,Pya(4)6,Arg(Me)9,Trp10]MS10 (peptide)
peptide: Ac-[dY][Hyp]NT[4Pal]GL[Arg(Me)]W-NH2
SMILES: CNC(=N)NCCC[C@H](NC(=O)[C@H](CC(C)C)NC(=O)CNC(=O)[C@H](Cc1ccncc1)NC(=O)[C@@H](NC(=O)[C@H](CC(N)=O)NC(=O)[C@@H]1C[C@@H](O)CN1C(=O)[C@@H](Cc1ccc(O)cc1)NC(C)=O)[C@@H](C)O)C(=O)N[C@@H](Cc1c[nH]c2ccccc12)C(N)=O
B6: des(1)-Ac-[D-Tyr2,Hyp3,Thr5,Val7,Arg(Me)9,Trp10]MS10 (peptide)
peptide: Ac-[dY][Hyp]NTFVL[Arg(Me)]W-NH2
SMILES: CNC(=N)NCCC[C@H](NC(=O)[C@H](CC(C)C)NC(=O)[C@@H](NC(=O)[C@H](Cc1ccccc1)NC(=O)[C@@H](NC(=O)[C@H](CC(N)=O)NC(=O)[C@@H]1C[C@@H](O)CN1C(=O)[C@@H](Cc1ccc(O)cc1)NC(C)=O)[C@@H](C)O)C(C)C)C(=O)N[C@@H](Cc1c[nH]c2ccccc12)C(N)=O
B7: des(1)-Ac-[D-Tyr2,Hyp3,Thr5,Pya(2)6,Arg(Me)9,Trp10]MS10 (peptide)
peptide: Ac-[dY][Hyp]NT[2Pal]GL[Arg(Me)]W-NH2
SMILES: CNC(=N)NCCC[C@H](NC(=O)[C@H](CC(C)C)NC(=O)CNC(=O)[C@H](Cc1ccccn1)NC(=O)[C@@H](NC(=O)[C@H](CC(N)=O)NC(=O)[C@@H]1C[C@@H](O)CN1C(=O)[C@@H](Cc1ccc(O)cc1)NC(C)=O)[C@@H](C)O)C(=O)N[C@@H](Cc1c[nH]c2ccccc12)C(N)=O

Molecular target: human OT7T175 (metastin receptor) (human) (UniProt Q969F8)
Sequence of UniProt Q969F8 (Q969F8 whole entry L364H): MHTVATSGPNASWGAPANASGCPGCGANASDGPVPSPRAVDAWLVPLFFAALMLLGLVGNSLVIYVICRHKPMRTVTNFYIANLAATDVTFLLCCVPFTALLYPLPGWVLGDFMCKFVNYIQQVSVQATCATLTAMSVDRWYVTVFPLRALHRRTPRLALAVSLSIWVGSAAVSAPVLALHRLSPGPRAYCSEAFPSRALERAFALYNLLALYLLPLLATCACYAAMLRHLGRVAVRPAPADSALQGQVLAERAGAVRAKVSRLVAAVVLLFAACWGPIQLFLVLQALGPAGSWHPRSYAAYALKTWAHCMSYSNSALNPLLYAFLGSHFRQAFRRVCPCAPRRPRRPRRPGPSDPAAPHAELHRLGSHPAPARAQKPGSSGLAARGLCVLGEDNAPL
Assay: cell-based or functional assay

Point of comparison: B7, Specific Activity (EC50 of test compound based on EC50 of Metastin (45-54); intracellular calcium, FLIPR) (ratio to EC50 of Metastin (45-54)) 1.2. Against it:
- des(1)-Ac-[D-Tyr2,Glu3,Thr5,Cha6,Ser(Me)8,Arg(Me)9,Trp10]MS10 (peptide) — lower, 0.5
- des(1)-Ac-[D-Tyr2,Hyp3,Thr5,Cha6,Nva8,Arg(Me)9,Trp10]MS10 (peptide) — lower, 0.5
- des(1)-Ac-[D-Tyr2,Hyp3,Thr5,Gly7Ψ(CH2S)Leu8,Arg(Me)9,Trp10]MS10 (peptide) — the same, 1.2
- des(1)-Ac-[D-Tyr2,Hyp3,Thr5,Nva8,Arg(Me)9,Trp10]MS10 (peptide) — lower, 0.7
- des(1)-Ac-[D-Tyr2,Hyp3,Thr5,Cha6,Arg(Me)9,Trp10]MS10 (peptide) — lower, 0.3
- des(1)-Ac-[D-Tyr2,Glu3,Thr5,Cha6,Nva8,Arg(Me)9,Trp10]MS10 (peptide) — lower, 0.4
- des(1)-Ac-[D-Tyr2,Hyp3,Thr5,Gly7Ψ((E)CH═CH)Leu8,Trp10]MS10 (peptide) — lower, 0.4
- des(1)-Ac-[D-Tyr2,Hyp3,Thr5,Cha6,Gly7Ψ((E)CH═CH)Leu8,Trp10]MS10 (peptide) — lower, 0.6
- des(1)-Ac-[D-Tyr2,Pro(4F)3,Thr5,Cha6,Ala(cPr)8,Arg(Me)9,Trp10]MS10 (peptide) — lower, 0.4
- des(1)-Ac-[D-Tyr2,Hyp3,Thr5,Cha6,Gly7Ψ(CH2S)Leu8,Arg(Me)9,Trp10]MS10 (peptide) — higher, 1.7
- des(1)-Ac-[D-Tyr2,Hyp3,Thr5,Cha6,Ser(Me)8,Arg(Me)9,Trp10]MS10 (peptide) — lower, 0.5
- des(1)-Ac-[D-Tyr2,Hyp3,Thr5,Cha6,Leu(Me)8,Arg(Me)9,Trp10]MS10 (peptide) — higher, 1.4
- des(1)-Ac-[D-Tyr2,Hyp3,Thr5,Ser(Me)8,Arg(Me)9,Trp10]MS10 (peptide) — lower, 0.8
- des(1)-Ac-[D-Tyr2,Hyp3,Thr5,Nal(2)6,Arg(Me)9,Trp10]MS10 (peptide) — lower, 1
- des(1)-Ac-[D-Tyr2,Hyp3,Thr5,Phe6Ψ(CH2CH2)AzaGly7,Arg(Me)9,Trp10]MS10 (peptide) — lower, 0.6
- des(1)-Ac-[D-Tyr2,Hyp3,Alb4,Thr5,Cha6,Gly7Ψ((E)CH═CH)Leu8,Trp10]MS10 (peptide) — lower, 0.5
- des(1)-Ac-[D-Tyr2,Hyp3,Thr5,Aib7,Arg(Me)9,Trp10]MS10 (peptide) — higher, 1.5
- des(1)-Ac-[D-Tyr2,Hyp3,Thr5,Cha6,Ala7,Arg(Me)9,Trp10]MS10 (peptide) — lower, 0.5
- des(1)-Ac-[D-Tyr2,Hyp3,Thr5,Cha6,Nle8,Arg(Me)9,Trp10]MS10 (peptide) — lower, 0.6
- B1 — lower, 0.5
- Ac-[dY][Hyp]NTFGL[Arg(Me)]W-NH2 (also: Phe5-Gly6 amide bond replaced by CH2O) [des(1)-Ac-[D-Tyr2,Hyp3,Thr5,Phe6Ψ(CH2O)Gly7,Arg(Me)9,Trp10]MS10] — lower, 0.5
- Ac-[dY][Hyp]NTFGL[Arg(Me)]W-NH2 (also: Phe5-Gly6 amide replaced by (S)CHOH-(E)CH=) [des(1)-Ac-[D-Tyr2,Hyp3,Thr5,Phe6Ψ((S)CHOH-(E)CH=)Gly7,Arg(Me)9,Trp10]MS10] — higher, 1.7
- Ac-[dY][Hyp]NTFGL[Arg(Me)]W-NH2 (also: Phe5-Gly6 amide replaced by (R)CHOH-(E)CH=) [des(1)-Ac-[D-Tyr2,Hyp3,Thr5,Phe6Ψ((R)CHOH-(E)CH=)Gly7,Arg(Me)9,Trp10]MS10] — higher, 1.4
- Ac-[dY][Hyp]NTFGL[Arg(Me)]W-NH2 (also: Phe5-Gly6 amide replaced by CH2CH2) [des(1)-Ac-[D-Tyr2,Hyp3,Thr5,Phe6Ψ(CH2CH2)Gly7,Arg(Me)9,Trp10]MS10] — higher, 1.3
- B2 — lower, 0.6
- Ac-[dY][Hyp]NT[Ala(cPr)]GL[Arg(Me)]W-NH2 [des(1)-Ac-[D-Tyr2,Hyp3,Thr5,Ala(cPr)6,Arg(Me)9,Trp10]MS10] — higher, 1.9
- B3 — lower, 0.9
- Ac-[dY][Hyp]NTFGL[Arg(Me)]W-NH2 (also: Gly6-Leu7 amide replaced by CH2NH) [des(1)-Ac-[D-Tyr2,Hyp3,Thr5,Gly7Ψ(CH2NH)Leu8,Arg(Me)9,Trp10]MS10] — higher, 2.9
- B4 — the same, 1.2
- Ac-[dY][Hyp]NTFGL[Arg(Me)]W-NH2 (also: Phe5-Gly6 amide replaced by (S)CHOH-CH2) [des(1)-Ac-[D-Tyr2,Hyp3,Thr5,Phe6Ψ((S)CHOH-CH2)Gly7,Arg(Me)9,Trp10]MS10] — the same, 1.2
- B5 — lower, 0.9
- Ac-[dY][Hyp]NTFGL[Arg(Me)]W-NH2 (also: Phe5-Gly6 amide bond replaced by COCH2) [des(1)-Ac-[D-Tyr2,Hyp3,Thr5,Phe6Ψ(COCH2)Gly7,Arg(Me)9,Trp10]MS10] — lower, 1.1
- Ac-[dY][Hyp]NTFGL[Arg(Me)]W-NH2 (also: Phe5-Gly6 amide replaced by (E)CH=CH) [des(1)-Ac-[D-Tyr2,Hyp3,Thr5,Phe6Ψ((E)CH═CH)Gly7,Arg(Me)9,Trp10]MS10] — lower, 0.7
- Ac-[dY][Hyp]NTFGL[Arg(Me)]W-NH2 [des(1)-Ac-[D-Tyr2,Hyp3,Thr5,Arg(Me)9,Trp10]MS10] — the same, 1.2
- B6 — higher, 1.7
